Test [1] concerns the target Werner syndrome protein (WRN), recombinant His6-tagged, wild type (human) (UniProt Q14191).
Test [2] has as its target WRN-E84A, full-length WRN with the N-terminal exonuclease inactivating mutation E84 to alanine (human) (UniProt Q14191).

“Recombinant human replication protein A (RPA) (complex)”: the radiometric DNA helicase assay, percent unwinding of a telomeric-repeat substrate lacking the 3′-ss tail by WRN (3 nM) with RPA 6 to 24 nM in test [1] turned out to be 22%.

B1: Protector of telomeres 1, variant 1 (POT1v1) (natural protein)
chain: MSLVPATNYIYTPLNQLKGGTIVNVYGVVKFFKPPYLSKGTDYCSVVTIVDQTNVKLTCLLFSGNYEALPIIYKNGDIVRFHRLKIQVYKKETQGITSSGFASLTFEGTLGAPIIPRTSSKYFNFTTEDHKMVEALRVWASTHMSPSWTLLKLCDVQPMQYFDLTCQLLGKAEVDGASFLLKVWDGTRTPFPSWRVLIQDLVLEGDLSHIHRLQNLTIDILVYDNHVHVARSLKVGSFLRIYSLHTKLQSMNSENQTMLSLEFHLHGGTSYGRGIRVLPESNSDVDQLKKDLESANLTANQHSDVICQSEPDDSFPSSGSVSLYEVERCQQLSATILTDHQYLERTPLCAILKQKAPQQYRIRAKLRSYKPRRLFQSVKLHCPKCHLLQEVPHEGDLDIIFQDGATKTPDVKLQNTSLYDSKIWTTKNQKGRKVAVHFVKNNGILPLSNECLLLIEGGTLSEICKLSNKFNSVIPVRSGHEDLELLDLSAPFLIQGTIHHYGCKQCSSLRSIQNLNSLVDKTSWIPSSVAEALGIVPLQYVFVMTFTLDDGTGVLEAYLMDSDKFFQIPASEVLMDDDLQKSVDMIMDMFCPPGIKIDAYPWLECFIKSYNVTNGTDNQICYQIFDTTVAEDVI
Turning to B1, in test [2], the radiometric DNA helicase assay, increase in unwound product of a 30-nt gap telomeric substrate pre-bound with POT1v1 (6 to 48 nM), WRN-E84A 6 nM; value at the 1:8 ratio of WRN-E84A to POT1v1 turned out to be 10%.
